In publication PMC5499727 (Nucleic Acids Research, 2017):

Target: Mcm2/4/6/7 complex (wild type) (mouse, UniProt P97310 1-904; P49717 1-862; P97311 1-821; Q61881 1-719)
Test: co-sedimentation

Mcm2/4/6/7 complex (wild type), sequence (P97310 whole entry, chain 1 of 4): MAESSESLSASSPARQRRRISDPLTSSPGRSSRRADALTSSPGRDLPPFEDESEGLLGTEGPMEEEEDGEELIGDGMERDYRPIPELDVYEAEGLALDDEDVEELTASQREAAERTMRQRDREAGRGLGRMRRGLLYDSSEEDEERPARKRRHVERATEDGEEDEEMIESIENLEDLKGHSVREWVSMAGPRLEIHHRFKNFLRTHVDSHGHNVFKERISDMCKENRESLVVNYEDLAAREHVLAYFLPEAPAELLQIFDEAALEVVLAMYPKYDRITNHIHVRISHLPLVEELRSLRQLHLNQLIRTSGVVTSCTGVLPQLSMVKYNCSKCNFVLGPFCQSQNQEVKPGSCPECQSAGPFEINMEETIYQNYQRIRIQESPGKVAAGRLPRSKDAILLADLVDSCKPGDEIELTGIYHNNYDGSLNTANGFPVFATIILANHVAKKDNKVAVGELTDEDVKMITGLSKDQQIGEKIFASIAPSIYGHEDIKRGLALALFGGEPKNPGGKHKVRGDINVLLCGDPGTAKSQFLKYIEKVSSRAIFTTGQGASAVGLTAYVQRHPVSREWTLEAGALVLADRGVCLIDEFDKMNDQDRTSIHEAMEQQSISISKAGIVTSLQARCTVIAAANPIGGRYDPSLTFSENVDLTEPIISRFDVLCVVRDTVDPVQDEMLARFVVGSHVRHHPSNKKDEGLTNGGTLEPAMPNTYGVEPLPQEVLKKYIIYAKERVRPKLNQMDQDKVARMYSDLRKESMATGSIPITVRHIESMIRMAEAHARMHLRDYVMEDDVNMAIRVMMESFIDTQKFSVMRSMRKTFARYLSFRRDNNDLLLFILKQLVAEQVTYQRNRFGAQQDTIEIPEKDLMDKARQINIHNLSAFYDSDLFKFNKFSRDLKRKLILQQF
Mcm2/4/6/7 complex (wild type), sequence (P49717 whole entry, chain 2 of 4): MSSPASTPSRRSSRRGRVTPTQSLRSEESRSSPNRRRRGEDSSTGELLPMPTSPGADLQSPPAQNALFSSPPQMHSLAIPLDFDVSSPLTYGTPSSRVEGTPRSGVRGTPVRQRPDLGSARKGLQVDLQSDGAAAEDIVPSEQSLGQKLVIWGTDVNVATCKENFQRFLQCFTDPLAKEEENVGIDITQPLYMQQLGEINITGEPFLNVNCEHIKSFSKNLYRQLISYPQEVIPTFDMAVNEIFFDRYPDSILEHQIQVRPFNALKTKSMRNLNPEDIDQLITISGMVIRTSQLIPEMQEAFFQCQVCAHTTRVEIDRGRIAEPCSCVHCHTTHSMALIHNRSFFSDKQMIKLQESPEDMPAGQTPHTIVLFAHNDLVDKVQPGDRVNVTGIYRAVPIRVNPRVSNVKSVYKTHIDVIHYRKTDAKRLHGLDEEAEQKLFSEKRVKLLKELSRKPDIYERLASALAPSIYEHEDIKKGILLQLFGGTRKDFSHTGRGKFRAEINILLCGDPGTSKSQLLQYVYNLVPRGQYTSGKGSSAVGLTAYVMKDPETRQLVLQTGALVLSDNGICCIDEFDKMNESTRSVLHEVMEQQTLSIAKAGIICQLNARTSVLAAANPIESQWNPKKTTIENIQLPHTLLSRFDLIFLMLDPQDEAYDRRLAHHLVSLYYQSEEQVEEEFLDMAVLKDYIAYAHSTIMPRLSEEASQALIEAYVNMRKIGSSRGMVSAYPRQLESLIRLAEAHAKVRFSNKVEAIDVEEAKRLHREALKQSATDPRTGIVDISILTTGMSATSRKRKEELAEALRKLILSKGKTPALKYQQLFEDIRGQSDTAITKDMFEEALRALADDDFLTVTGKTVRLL
Mcm2/4/6/7 complex (wild type), sequence (P97311 whole entry, chain 3 of 4): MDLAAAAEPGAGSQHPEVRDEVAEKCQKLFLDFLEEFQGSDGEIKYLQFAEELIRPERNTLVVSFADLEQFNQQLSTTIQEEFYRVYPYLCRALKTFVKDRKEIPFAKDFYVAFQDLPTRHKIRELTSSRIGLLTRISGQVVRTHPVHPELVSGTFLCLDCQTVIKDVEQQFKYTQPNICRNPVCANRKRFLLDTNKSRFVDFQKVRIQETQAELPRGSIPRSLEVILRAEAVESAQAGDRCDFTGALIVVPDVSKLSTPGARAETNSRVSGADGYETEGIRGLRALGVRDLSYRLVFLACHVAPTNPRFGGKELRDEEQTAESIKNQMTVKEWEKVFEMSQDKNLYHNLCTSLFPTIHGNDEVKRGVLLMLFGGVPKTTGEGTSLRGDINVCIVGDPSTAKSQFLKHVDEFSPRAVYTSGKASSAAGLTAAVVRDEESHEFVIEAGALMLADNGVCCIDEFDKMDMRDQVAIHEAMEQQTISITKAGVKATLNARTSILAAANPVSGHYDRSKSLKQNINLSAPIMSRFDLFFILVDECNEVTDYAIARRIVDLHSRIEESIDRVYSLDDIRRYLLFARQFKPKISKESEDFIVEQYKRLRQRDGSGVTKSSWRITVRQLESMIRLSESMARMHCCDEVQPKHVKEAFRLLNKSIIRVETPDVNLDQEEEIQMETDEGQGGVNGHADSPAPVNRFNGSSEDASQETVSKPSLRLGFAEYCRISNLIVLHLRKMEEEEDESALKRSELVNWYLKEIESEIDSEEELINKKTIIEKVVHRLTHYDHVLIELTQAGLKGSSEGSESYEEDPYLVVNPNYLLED
Mcm2/4/6/7 complex (wild type), sequence (Q61881 whole entry, chain 4 of 4): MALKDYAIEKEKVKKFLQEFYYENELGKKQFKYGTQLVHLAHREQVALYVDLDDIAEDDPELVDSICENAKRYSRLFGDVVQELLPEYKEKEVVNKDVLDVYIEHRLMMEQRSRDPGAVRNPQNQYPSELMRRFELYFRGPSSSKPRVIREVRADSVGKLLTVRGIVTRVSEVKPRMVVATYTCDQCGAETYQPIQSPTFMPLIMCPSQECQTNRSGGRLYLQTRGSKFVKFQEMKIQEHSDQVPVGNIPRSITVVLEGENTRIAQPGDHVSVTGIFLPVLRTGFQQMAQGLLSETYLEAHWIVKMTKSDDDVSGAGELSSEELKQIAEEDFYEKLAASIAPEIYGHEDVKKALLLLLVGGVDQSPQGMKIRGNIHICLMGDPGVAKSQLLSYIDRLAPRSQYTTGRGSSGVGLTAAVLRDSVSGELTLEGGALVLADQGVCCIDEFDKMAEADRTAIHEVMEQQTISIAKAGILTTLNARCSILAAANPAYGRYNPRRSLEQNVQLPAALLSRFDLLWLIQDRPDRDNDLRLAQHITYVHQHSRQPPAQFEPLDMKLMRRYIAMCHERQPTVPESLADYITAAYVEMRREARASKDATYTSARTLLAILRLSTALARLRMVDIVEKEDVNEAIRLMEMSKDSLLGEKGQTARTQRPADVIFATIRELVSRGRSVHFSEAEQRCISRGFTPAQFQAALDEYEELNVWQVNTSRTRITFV

binding result: binds
B1: Mcm3/5 complex (wild type) (complex, mouse)
chain 1: MAGTVVLDDVELREAQRDYLDFLDDEEDQGIYQNKVRELISDNQYRLIVSVNDLRRKNEKRANRLLNNAFEELVAFQRALKDFVASIDATYAKQYEEFYIGLEGSFGSKHVSPRTLTSCFLSCVVCVEGIVTKCSLVRPKVVRSVHYCPATKKTIERRYSDLTTLVAFPSSSVYPTKDEENNPLETEYGLSVYKDHQTITIQEMPEKAPAGQLPRSVDVILDDDLVDKVKPGDRIQVVGTYRCLPGKKGCYTSGTFRTVLIACNVKQMSKDIQPAFSADDIAKIKKFSKTRSKDVFEQLARSLAPSIHGHDYVKKAILCLLLGGVERELENGSHIRGDINILLIGDPSVAKSQLLRYVLCTAPRAIPTTGRGSSGVGLTAAVTTDQETGERRLEAGAMVLADRGVVCIDEFDKMSDMDRTAIHEVMEQGRVTIAKAGIHARLNARCSVLAAANPVYGRYDQYKTPMENIGLQDSLLSRFDLLFIMLDQMDPEQDREISDHVLRMHQYRAPGEQDGDALPLGSSVDILATDDPDFTQDDQQDTRIYEKHDSLLHGTKKKKEKMVSAAFMKKYIHVAKIIKPTLTQESAAYIAEEYSRLRSQDSMSSDTARTSPVTARTLETLIRLATAHAKARMSKTVDLQDAEEAVELVQYAYFKKVLEKEKKRKKASEDESDLEDEEEKSQEDTEQKRKRRKTHAKDGESYDPYDFSEAETQMPQVHTPKTDDSQEKTDDSQETQDSQKVELSEPRLKAFKAALLEVFQEAHEQSVGMLHLTESINRNREEPFSSEEIQACLSRMQDDNQVMVSEGIVFLI
chain 2: MSGFDDPGIFYSDSFGGDPGAEEGQARKSQLQRRFKEFLRQYRVGTDRTGFTFKYRDELKRHYNLGEYWIEVEMEDLASFDEELADHLHKQPAEHLQLLEEAAKEVADEVTRPRPAGDELLQDIQVMLKSDASPSSIRILKSDMMSHLVKIPGIIISASAVRAKATRISIQCRSCHNTLTNIAMRPGLEGYALPRKCNMDQAGRPKCPLDPYFIMPDKCKCVDFQTLKLQELPDAVPHGEMPRHMQLYCDRYLCDKVVPGNRVTIMGIYSIKKFGLNPSKGRDRVGVGIRSSYIRVLGIQVDTDGSGRSFAGSVSPQEEEEFRRLAALPNIYELISKSISPSIFGGMDMKKAIACLLFGGSRKRLPDGLTRRGDINLLMLGDPGTAKSQLLKFVEKCSPIGVYTSGKGSSAAGLTASVIRDPSSRNFIMEGGAMVLADGGVVCIDEFDKMREDDRVAIHEAMEQQTISIAKAGITTTLNSRCSVLAAANSVFGRWDETKGEDNIDFMPTILSRFDMIFIVKDEHNEERDMMLAKHVMTLHVSALTQTQAVEGEIDLAKMKKFIAYCRARCGPRLSAEAAEKLKNRYIIMRSGARQHERDSDRRSSIPITVRQLEAIVRIAEALSKMKLQPFATEADVEEALRLFQVSTLDAALSGNLSGVEGFTTQEDQEMLSRIEKQLKRRFAIGSQVSEHSIVQDFTKQKYPEHAIRKVLQLMLRRGEIQHRMQRKVLYRLK
